# Test results taken from patent US20180155451A1 (published 2018).
# Where a chain is given by its changes, count along the chain named.
# B1: GpH7-A5/GpH7-B3 variant S239_07I/GpL16-k0 (antibody, human IgG1, kappa)
# heavy 1: not shown
# heavy 2: not shown
# light: DIVMTQSPLSLPVTPGEPASISCQASESLVHSNRNTYLHWYLQKPGQSPQLLIYKVSNRFSGVPDRFSGSGSGTDFTLKISRVEAEDVGVYYCSQNTHVPPTFGQGTKVEIERTVAAPSVFIFPPSDEQLKSGTASVVCLLNNFYPREAKVQWKVDNALQSGNSQESVTEQDSKDSTYSLSSTLTLSKADYEKHKVYACEVTHQGLSSPVTKSFNRGEC
# notes: Heterodimerized anti-glypican-3 IgG1; alteration in the GpH7-B3 chain only; also called He Ab
# B2: GpH7-A5/GpH7-B3 variant S239_18N/GpL16-k0 (antibody, human IgG1, kappa)
# heavy 1: not shown
# heavy 2: not shown
# light: B1 light
# notes: as for B1
# B3: GpH7-A5/GpH7-B3 variant S267_01G/GpL16-k0 (antibody, human IgG1, kappa)
# heavy 1: not shown
# heavy 2: not shown
# light: B1 light
# notes: as for B1
# B4: GpH7-A5/GpH7-B3 variant S267_03V/GpL16-k0 (antibody, human IgG1, kappa)
# heavy 1: not shown
# heavy 2: not shown
# light: B1 light
# notes: as for B1
# B5: GpH7-A5/GpH7-B3 variant S267_07I/GpL16-k0 (antibody, human IgG1, kappa)
# heavy 1: not shown
# heavy 2: not shown
# light: B1 light
# notes: as for B1
# B6: GpH7-A5/GpH7-B3 variant P329_01G/GpL16-k0 (antibody, human IgG1, kappa)
# heavy 1: not shown
# heavy 2: not shown
# light: B1 light
# notes: He Ab; IgG1; mutation in one H chain only
# B7: GpH7-A5/GpH7-B3 variant A330_03V/GpL16-k0 (antibody, human IgG1, kappa)
# heavy 1: not shown
# heavy 2: not shown
# light: B1 light
# notes: as for B6
# B8: GpH7-A5/GpH7-B3 variant A330_07I/GpL16-k0 (antibody, human IgG1, kappa)
# heavy 1: not shown
# heavy 2: not shown
# light: B1 light
# notes: as for B6
# B9: GpH7-A5/GpH7-B3 variant A330_08L/GpL16-k0 (antibody, human IgG1, kappa)
# heavy 1: not shown
# heavy 2: not shown
# light: B1 light
# notes: as for B6
# B10: GpH7-A5/GpH7-B3 variant A330_09D/GpL16-k0 (antibody, human IgG1, kappa)
# heavy 1: not shown
# heavy 2: not shown
# light: B1 light
# notes: as for B6
# B11: GpH7-A5/GpH7-B3 variant A330_10E/GpL16-k0 (antibody, human IgG1, kappa)
# heavy 1: not shown
# heavy 2: not shown
# light: B1 light
# notes: as for B6
# B12: GpH7-A5/GpH7-B3 variant A330_12R/GpL16-k0 (antibody, human IgG1, kappa)
# heavy 1: not shown
# heavy 2: not shown
# light: B1 light
# notes: as for B6
# B13: GpH7-A5/GpH7-B3 variant A330_13S/GpL16-k0 (antibody, human IgG1, kappa)
# heavy 1: not shown
# heavy 2: not shown
# light: B1 light
# notes: as for B6
# B14: GpH7-A5/GpH7-B3 variant A330_14T/GpL16-k0 (antibody, human IgG1, kappa)
# heavy 1: not shown
# heavy 2: not shown
# light: B1 light
# notes: as for B6
# B15: GpH7-A5/GpH7-B3 variant A330_18N/GpL16-k0 (antibody, human IgG1, kappa)
# heavy 1: not shown
# heavy 2: not shown
# light: B1 light
# notes: as for B6
# B16: GpH7-A5/GpH7-B3 variant I336_20W/GpL16-k0 (antibody, human IgG1, kappa)
# heavy 1: not shown
# heavy 2: not shown
# light: B1 light
# notes: as for B6
# B17: GpH7-A5/GpH7-B3 variant N325_02A/GpL16-k0 (antibody, human IgG1, kappa)
# heavy 1: not shown
# heavy 2: not shown
# light: B1 light
# notes: as for B6
# Biological target: T1, FcγRIIa H (human, UniProt P12318 34-217)
# T1 construct: extracellular domain; Soluble extracellular domain with C-terminal His tag, expressed in FreeStyle293 cells; also called FcgRIIa H; 2aH; not shown: C-terminal His tag
# T1 sequence (looked up): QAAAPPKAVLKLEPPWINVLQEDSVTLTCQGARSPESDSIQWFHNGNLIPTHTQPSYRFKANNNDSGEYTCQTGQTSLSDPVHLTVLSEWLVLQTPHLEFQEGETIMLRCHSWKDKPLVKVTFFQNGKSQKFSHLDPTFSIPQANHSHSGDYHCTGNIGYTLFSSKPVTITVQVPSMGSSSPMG
# Assay: SPR (Biacore), antibody captured, FcγR as analyte; relative to HeCon Ab
# Description: (§1) The heterodimerized antibodies He Abs in which one of the H chains was introduced with an alteration were assayed for their binding activities to each activating FcγR and inhibitory FcγR according to the method described in Example 4. […] The activating FcγRs in FIGS. 26, 27, 28, and 29 are FcγRIa, FcγRIIa (R), FcγRIIa (H), and FcγRIIIa, respectively.
# (§2) Analysis of interaction between objective antibody and the FcγR was carried out using Biacore T100 (GE Healthcare). HBS-EP+ (GE Healthcare) was used as the running buffer, and the measurement temperature was set to 25° C. Chips produced by immobilizing the antigen peptide by the amine coupling method to a Series S Sencor Chip CM5 (GE Healthcare), or alternatively, chips produced by allowing preliminarily biotinylated antigen peptides to interact with and immobilize onto a Series S Sensor Chip SA (certified) (GE Healthcare) were used. Antibodies of interest were captured onto an antigen peptide-immobilized chip, and allowed to interact to each FcγR diluted with running buffer. To regenerate and repeatedly use the chip, the antibodies captured on the chip were washed off by reacting 10 mM glycine-HCl, pH 1.5.
row,Binder,He/Con_2aH
1,B1,91.5 % of GpH7-A5/GpH7-B3/GpL16-k0 (=100)
2,B2,94.2 % of GpH7-A5/GpH7-B3/GpL16-k0 (=100)
3,B3,71.3 % of GpH7-A5/GpH7-B3/GpL16-k0 (=100)
4,B4,50.8 % of GpH7-A5/GpH7-B3/GpL16-k0 (=100)
5,B5,34.7 % of GpH7-A5/GpH7-B3/GpL16-k0 (=100)

# Biological target: T2, FcγRIIb (human, UniProt P31994 43-217)
# T2 construct: extracellular domain; Soluble extracellular domain with C-terminal His tag, expressed in FreeStyle293 cells; also called FcgRIIb; 2b; not shown: C-terminal His tag
# T2 sequence (looked up): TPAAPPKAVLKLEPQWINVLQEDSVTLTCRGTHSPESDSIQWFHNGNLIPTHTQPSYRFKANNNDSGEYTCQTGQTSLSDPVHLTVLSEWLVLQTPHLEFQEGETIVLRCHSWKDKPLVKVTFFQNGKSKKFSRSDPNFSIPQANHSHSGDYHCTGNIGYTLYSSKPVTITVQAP
# Assay: as above
# Description: as §1, §2
row,Binder,He/Con_2b
1,B1,107 % of GpH7-A5/GpH7-B3/GpL16-k0 (=100)
2,B2,119 % of GpH7-A5/GpH7-B3/GpL16-k0 (=100)
3,B3,105 % of GpH7-A5/GpH7-B3/GpL16-k0 (=100)
4,B4,192 % of GpH7-A5/GpH7-B3/GpL16-k0 (=100)
5,B5,192 % of GpH7-A5/GpH7-B3/GpL16-k0 (=100)

# Biological target: T3, FcγRIIa R (human, UniProt P12318 34-217)
# T3 construct: extracellular domain; also called FcgRIIa R; FcγRIIa type R
# T3 sequence (looked up): T1 sequence (looked up) with H134R
# Assay: SPR (Biacore), captured antibody, FcγR analyte; binding relative to GpH7-A5/GpH7-B3/GpL16-k0 = 100
row,Binder,He/Con_2aR (IIaR binding)
1,B6,55 control=100
2,B7,74.9 control=100
3,B8,85.6 control=100
4,B9,88.8 control=100
5,B10,70.9 control=100
6,B11,86.6 control=100
7,B12,104 control=100
8,B13,60.8 control=100
9,B14,95.5 control=100
10,B15,81.1 control=100
11,B16,30.3 control=100
12,B17,84.1 control=100

# Biological target: T4, FcγRIIb (human, UniProt P31994 43-217)
# T4 construct: extracellular domain; also called FcgRIIb
# T4 sequence (looked up): T2 sequence (looked up)
# Assay: as above
row,Binder,He/Con_2b (IIb binding)
1,B6,41.7 control=100
2,B7,52.4 control=100
3,B8,67.1 control=100
4,B9,70.5 control=100
5,B10,55.6 control=100
6,B11,70.1 control=100
7,B12,84.8 control=100
8,B13,41.3 control=100
9,B14,77.9 control=100
10,B15,63.7 control=100
11,B16,20.3 control=100
12,B17,64.4 control=100

# Biological target: T3, FcγRIIa R
# Assay: He/Con_2aR divided by He/Con_2b (FcγRIIa R over FcγRIIb); SPR (Biacore)
row,Binder,IIaR/IIb (He_2aR/2b)
1,B6,1.32 ratio
2,B7,1.43 ratio
3,B8,1.27 ratio
4,B9,1.26 ratio
5,B10,1.27 ratio
6,B11,1.23 ratio
7,B12,1.22 ratio
8,B13,1.47 ratio
9,B14,1.23 ratio
10,B15,1.27 ratio
11,B16,1.5 ratio
12,B17,1.31 ratio
